Data on 3 molecules can be found in US20240317847A1 (Bayer, published 2024).

In test [1] the target is T1, human IL-11 (Invigate, e.g., lot #C121021-19) (human, UniProt P20809 22-199).
T1 construct: Bought protein; also called hIL-11; hIL11
T1 sequence: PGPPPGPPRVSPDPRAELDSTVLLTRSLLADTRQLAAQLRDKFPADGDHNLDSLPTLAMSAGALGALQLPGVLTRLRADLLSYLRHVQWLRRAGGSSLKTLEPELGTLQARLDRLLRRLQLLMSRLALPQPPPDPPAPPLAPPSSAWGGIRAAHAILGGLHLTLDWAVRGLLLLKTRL
Kind of test: SPR, Biacore 8K; antibody captured on anti-human IgG Fc chip, IL-11 analyte 0-50 nM, 1:1 fit. Background: Surface plasmon resonance follows binding to a sensor surface in real time, without labels.

Test [2] addresses T2, murine IL-11 (Invigate, e.g., lot #C210819-09) (mouse, UniProt P47873 22-199).
T2 construct: Bought protein; biotinylated where captured on streptavidin plates; also called mIL-11; mIL11
T2 sequence: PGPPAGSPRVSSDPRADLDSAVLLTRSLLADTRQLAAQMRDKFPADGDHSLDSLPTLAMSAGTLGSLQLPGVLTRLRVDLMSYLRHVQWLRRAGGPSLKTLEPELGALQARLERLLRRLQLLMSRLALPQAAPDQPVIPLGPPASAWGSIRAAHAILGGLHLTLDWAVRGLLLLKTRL
The description is as above.

Another test has as its target T3, human IL2Ra (human, UniProt P01589 22-240, limits assumed).
T3 construct: bought protein, coated on the plate; also called hIL2RA; IL-2 receptor alpha
T3 sequence (looked up): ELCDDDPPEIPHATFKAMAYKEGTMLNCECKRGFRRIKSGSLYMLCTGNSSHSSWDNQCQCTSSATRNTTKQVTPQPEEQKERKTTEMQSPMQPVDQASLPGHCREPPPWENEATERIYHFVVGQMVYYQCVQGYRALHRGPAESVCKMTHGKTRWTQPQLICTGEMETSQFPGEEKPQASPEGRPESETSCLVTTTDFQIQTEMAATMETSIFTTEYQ
Description: IL2Ra direct binding ELISA, signal ratio to isotype control. The method, boiled down:
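Plates coated overnight at 4-8 °C with IL2RA at 1 or 0 μg/ml, blocked with SmartBlock. Antibody dilution series from 1E-7 to 2E-13 M bound 90 min at room temperature, detected with HRP anti-mouse IgG and Amplex red/H2O2; fluorescence at 535/590 nm.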

The target in another test is T4, murine IL-11 (mouse, UniProt P47873 22-199).
T4 construct: Invigate, e.g. lot #C210819-09; biotinylated where coated in the ELISA; also called mIL-11; mIL11
T4 sequence: T2 sequence
Description: Di-complex ELISA, competitor canine IL11RA-Fc on coated IL-11. (In general: An ELISA detects its analyte on a solid surface through an enzyme-linked reagent.)

For another test, the target named is T5, human IL-11 (human, UniProt P20809 22-199).
T5 construct: Invigate recombinant protein; biotinylated when immobilized in the Di-complex ELISA; also called hIL11; hIL-11
T5 sequence: T1 sequence
Description: SPR (Biacore), 25 C, antibody captured via anti-Fc, IL-11 as analyte; SPR at 25 C.
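Wherever Efficacy (%) is given: signal drop relative to signal at lowest antibody concentration.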

B1: TPP-18087 (antibody, mouse IgG1, V domains shown)
VH: EVQLLESGGGLVQPGGSLRLSCAASGFTFSHYDMNWLRQAPGKGLEWVGVISYDGSNKFYADFVKGRFTISRDNSKNTLYLQMNSLRAEDTAVYYCARTPGSHFDYWGQGTLVTVSS
VL: QSVLTQPPSASGTPGQRVTISCSGSSSNIGNNAVNWYQQLPGTAPKLLIYYDDLLPSGVPDRFSGSKSGTSASLAISGLRSEDEADYYCSAWDDSLNGVVFGGGTKLTVLG
notes: mIgG1, Lambda
As usually defined, the Kd is a measure of binding affinity in units of concentration. Low values mean tighter binding, high ones weaker binding. For the molecule B1, the figures for the Kd in test [1] and in test [2] were 5.2 nM and 12 nM, respectively.

B2: TPP-18068 (antibody, mouse IgG1)
heavy: EVQLLESGGGLVQPGGSLRLSCAASGFTFSSYGMHWVRQAPGKGLEWVSVISYDGSYKYYADSVKGRFTISRDNSKNTLYLQMNSLRAEDTAVYYCAAGVPDYWGQGTLVTVSSAKTTPPSVYPLAPGSAAQTNSMVTLGCLVKGYFPEPVTVTWNSGSLSSGVHTFPAVLQSDLYTLSSSVTVPSSTWPSETVTCNVAHPASSTKVDKKIVPRDCGCKPCICTVPEVSSVFIFPPKPKDVLTITLTPKVTCVVVDISKDDPEVQFSWFVDDVEVHTAQTQPREEQFNSTFRSVSELPIMHQDWLNGKEFKCRVNSAAFPAPIEKTISKTKGRPKAPQVYTIPPPKEQMAKDKVSLTCMITDFFPEDITVEWQWNGQPAENYKNTQPIMDTDGSYFVYSKLNVQKSNWEAGNTFTCSVLHEGLHNHHTEKSLSHSPGK
light: QSVLTQPPSASGTPGQRVTISCTGSSSNIGAGYDVHWYQQLPGTAPKLLIYSNNERPSGVPDRFSGSKSGTSASLAISGLRSEDEADYYCAAWDDSLNGPVFGGGTKLTVLGQPKSSPSVTLFPPSSEELETNKATLVCTITDFYPGVVTVDWKVDGTPVTQGMETTQPSKQSNNKYMASSYLTLTARAWERHSSYSCQVTHEGHTVEKSLSRADCS
notes: mIgG1, Lambda
In general, IC50 refers to the concentration needed to halve the response being measured. For the molecule B2, the “hIL2RA ELISA Binding: Ratio to Isotpye” value with human IL2Ra was determined as 398 ratio. Further, in the test with murine IL-11, the “Efficacy (%)” value was determined as 64.2% and the IC50 is 2.9 nM.

B3: TPP-18068 (antibody, mouse IgG1)
heavy: B2 heavy
light: B2 light
notes: mIgG1, Lambda
In turn, B3 gave a Kd in the test with human IL-11 of 25 nM.
